Data as given in US12485182B2, “Proteoglycan mimetics for enhanced wound healing, angiogenesis, and vascular repair” (The Regents of the University of California, priority 2018, dated 2025).
Non-standard residues stand in square brackets, D forms with d. No end group written: not given here. AEEA = NCCOCCOCC(=O)O

Tests used:
[1] = molecular target: T1, collagen I (Rattus norvegicus, UniProt P02454+P02466); assay: Surface binding of biotinylated molecules to collagen I (streptavidin-HRP); settings: for collagen I binding after incubation (deterioration of binding activity over time): after 2 weeks in 1% BSA at room temperature
T1 construct: rat tail collagen I (Corning); purchased Corning; host or cells: rat tail (tissue-extracted)
Procedure: (§1) High-binding 96-well plates (Corning) were coated with 50 μg/mL rat tail collagen I (Corning) at 4° C. overnight or 2% reduced growth factor Matrigel (Corning #354230) in basal EBM media for 30 minutes at 37° C. and rinsed 3× with PBS before blocking non-specific binding with 1% Bovine Serum Albumin (BSA) for 1 hour at room temperature. For fibrinogen surfaces, a fibrinogen coating solution of ˜2.75 mg/mL fibrinogen (Sigma) and 5.5 μg/mL aprotinin (Sigma) was incubated at 4° C. overnight in high-binding plates. Biotinylated samples dissolved in 1% BSA were allowed to bind to the surface for 30 minutes at 37° C. on a plate shaker. After 3 washes with PBS, wells were incubated with 1:200 streptavidin-HRP in 1% BSA, rinsed 3× with PBS, developed with a 1:1 A to B color solution for 20 minutes, stopped with the addition 2N H2SO4, and read on a Spectramax M5 platereader for absorbance at 450 nm with 540 nm correction.
(§2) The ability of DS-SILY4 to bind to various protein surface coatings was investigated using streptavidin-HRP detection of bound biotinylated DS-SILY4 molecules. Here we studied collagen and fibrinogen binding properties of the proteoglycan mimics since this proposed therapy is designed to target angiogenic activity to the wound site by tethering to extracellular matrix. Using standard surface coating procedures for collagen (50 μg/mL) and matrigel (2%), ˜7.5 μg/cm^2 rat tail collagen I and ˜28 μg/cm^2 matrigel were allowed to bind to a high bind plate.

[2] = tested on: matrigel (collagen IV/laminin); assay: Surface binding of biotinylated molecules to matrigel (streptavidin-HRP); settings: for matrigel binding affinity (relative): comparison between molecules; for matrigel binding after incubation (deterioration of binding activity over time): after 2 weeks in 1% BSA at room temperature
Procedure: as §1, §2

[3] = tested on: THP-1 monocytes; assay: Attachment of THP-1 monocytes to peptide-treated surfaces; type: cell-based; settings: biotin-peptide on Avidin-coated wells
From the text: (§3) FIG. 33. Attachment of cells and platelets to LXW7 and GRGD (SEQ ID NO: 2) treated surfaces. (A) Images of attached HCAECs (left panels), THP-1 monocytes (middle panels) and platelets (right panels) on surfaces treated by D-Biotin (a-c) (control), LXW7 (d-f) or GRGD (SEQ ID NO: 2) (g-i). Scale bars in a, b, d, e, g and h are 50 μm. Scale bars in c, f and i are 20 μm. (B) The number of cells or platelets attached on different treated surfaces were quantified and statistical analyses were performed. Data were expressed as mean±standard deviation: **p<0.01 (n=4).
(§4) Using primary artery-derived ECs and blood-derived EPCs as living probes to screen One-Bead-One-Compound (OBOC) combinatorial peptide libraries, several high-affinity binding ligands against the αvβ3 integrin on the surface of EPCs/ECs were identified. […] The LXW7 peptide, when grafted to surfaces, supports adhesion and spreading of EPCs and human coronary ECs, but not platelets or monocytes. […] After washing with PBS and blocking with 1% BSA wells were ready for cell attachment with 5×10^4 HCAECs or THP-1 monocytes suspended in the respective maintenance medium, or freshly isolated platelets at a density of 5×10^7 platelets/cm^2 incubated for 16 h at 37° C., 5% CO2. […] Quantification of images was performed using the Image J software (NIH).

[4] = tested on: platelets; assay: Attachment of platelets to peptide-treated surfaces; type: cell-based; settings: biotin-peptide on Avidin-coated wells
From the text: as §3, §4

[5] = tested on: HMVEC; assay: HMVEC attachment to surface-bound molecules (alamarBlue); type: cell-based, human; settings: low cell densities, both 1 μM and 10 μM surface treatments
Procedure: (§5) 50 μL, treatments dissolved in 1% BSA in PBS were added to a Biocoat Collagen I 96-well plate (Corning) and incubated for 30 minutes at 37° C. before washing 3 times with PBS to remove unbound treatment. […] To evaluate initial attachment, media was aspirated 5-8 hours after seeding and exchanged with alamarBlue® cell viability reagent (1:10, 110 μL/well, Molecular Probes) and incubated for 2.5 hours at 37° C. according to the manufacturers' protocol. 100 μL from each well was pipetted into a new plate and assayed for fluorescence at 560 nm excitation and 590 nm emission. Remaining reagent was aspirated and replaced with fresh media and the alamarBlue® viability assay was performed every 2 days thereafter for 1 week. To control for initial differences in HMVEC attachment, proliferation data is presented as the alamarBlue® fluorescence signal normalized to the signal at 8 hours.

[6] = molecular target: T2, fibrinogen (Homo sapiens, UniProt P02671+P02675+P02679); assay: Surface binding of biotinylated molecules to fibrinogen (streptavidin-HRP); settings: biotinylated molecule, absorbance
T2 construct: purchased Sigma
T2 sequence (P02671 20-629 limits assumed): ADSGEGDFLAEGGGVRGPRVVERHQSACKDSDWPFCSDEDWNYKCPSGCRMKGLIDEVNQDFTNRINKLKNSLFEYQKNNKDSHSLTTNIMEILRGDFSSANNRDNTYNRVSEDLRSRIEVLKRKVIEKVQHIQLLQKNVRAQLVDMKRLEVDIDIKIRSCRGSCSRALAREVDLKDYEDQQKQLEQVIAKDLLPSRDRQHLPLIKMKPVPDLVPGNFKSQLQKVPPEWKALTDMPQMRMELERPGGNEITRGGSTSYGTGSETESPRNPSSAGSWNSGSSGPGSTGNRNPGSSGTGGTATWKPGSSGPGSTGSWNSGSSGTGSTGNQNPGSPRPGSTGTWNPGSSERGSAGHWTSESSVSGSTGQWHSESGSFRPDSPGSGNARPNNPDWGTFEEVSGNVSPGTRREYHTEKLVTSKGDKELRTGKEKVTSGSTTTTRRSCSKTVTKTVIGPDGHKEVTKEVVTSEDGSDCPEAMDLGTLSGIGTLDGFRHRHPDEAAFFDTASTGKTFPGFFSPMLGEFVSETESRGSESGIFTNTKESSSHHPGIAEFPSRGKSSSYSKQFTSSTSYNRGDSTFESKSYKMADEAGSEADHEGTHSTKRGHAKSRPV
T2 sequence (P02675 31-491): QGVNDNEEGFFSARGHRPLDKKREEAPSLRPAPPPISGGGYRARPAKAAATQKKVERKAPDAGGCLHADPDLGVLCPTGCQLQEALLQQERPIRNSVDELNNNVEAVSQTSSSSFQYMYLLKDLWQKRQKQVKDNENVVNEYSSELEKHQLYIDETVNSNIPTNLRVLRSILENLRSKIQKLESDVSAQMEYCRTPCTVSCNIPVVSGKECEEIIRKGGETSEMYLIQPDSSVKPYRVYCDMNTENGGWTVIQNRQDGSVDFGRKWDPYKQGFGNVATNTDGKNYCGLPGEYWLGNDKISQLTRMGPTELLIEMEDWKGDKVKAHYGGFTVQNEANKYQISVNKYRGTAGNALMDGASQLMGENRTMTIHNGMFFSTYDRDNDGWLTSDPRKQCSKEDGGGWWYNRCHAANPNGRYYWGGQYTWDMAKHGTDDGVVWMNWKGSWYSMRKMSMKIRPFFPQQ
T2 sequence (P02679 27-433 limits assumed): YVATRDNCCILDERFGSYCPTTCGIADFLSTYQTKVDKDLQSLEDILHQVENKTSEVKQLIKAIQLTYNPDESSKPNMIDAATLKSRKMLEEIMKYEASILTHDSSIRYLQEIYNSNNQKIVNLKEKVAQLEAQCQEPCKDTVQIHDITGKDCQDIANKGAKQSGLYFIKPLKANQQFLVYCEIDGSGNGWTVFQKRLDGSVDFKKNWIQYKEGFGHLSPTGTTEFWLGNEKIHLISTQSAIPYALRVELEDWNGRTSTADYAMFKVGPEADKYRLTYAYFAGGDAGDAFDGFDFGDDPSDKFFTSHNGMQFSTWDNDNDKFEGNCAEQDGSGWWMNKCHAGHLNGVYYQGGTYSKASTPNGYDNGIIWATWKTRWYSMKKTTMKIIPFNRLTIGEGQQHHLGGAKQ
Procedure: as §1
as §2, with “Using standard surface coating procedures for collagen (50 μg/mL) and matrigel (2%), ˜7.5 μg/cm^2 rat tail collagen I and ˜28 μg/cm^2 matrigel were allowed to bind to a high bind plate.” left out

[7] = tested on: HMVEC; assay: HMVEC proliferation in response to surface-bound molecules (alamarBlue); type: cell-based, human
Procedure: as §5
Both soluble and bound forms of molecules would be present in a dynamic equilibrium in this initial experimental design and the two forms may produce differing effects, and thus we sought to investigate the effects of bound molecules alone. Furthermore, the bioactivity of a collagen-bound form would more directly reflect the application of a targeted pro-angiogenic therapy in a chronic wound. […]

[8] = tested on: chick chorioallantoic membrane; assay: Ex ovo CAM assay, vascular invasion into collagen gels; type: in vivo; settings: both 10 μM and 20 μM embedded gels, vs blank controls
Procedure: For experiments studying vascular invasion into collagen gels, 30 μL collagen I gels with an embedded 3 mm×3 mm nylon mesh (Fisher) were used. 4-5 gels were placed on each CAM, with 2-3 treatment gels of the same type and 2 blank gels as internal controls to correct for embryo variability. In some embryos, the nylon meshes were dyed to improve visualization of the mesh and vessels growing into the gel. Large (4 cm×10 cm) nylon meshes were dyed by reacting in 226 mL of a 77 mM acetic acid (Sigma) solution with 10 drops of green food coloring (McCormick) or 250 μL of 3 mg/mL Evans blue (Alfa Aesar) at 121° C. for 15 minutes in an autoclave, and then cut to 3 mm×3 mm squares for embedding. Gels were imaged daily through a Dino-Eye AM7025X camera installed on a stereomicroscope; for images more than 2 days after gel implantation, 0.25 mL PBS was pipetted on top of gels to help visualize vessels. […]
In an attempt to better visualize new vasculature invading the implanted collagen gels, we injected ˜100 μL 1 mg/mL high molecular weight fluorescent dextran (70 kDa RITC-dextran) into the CAM vessels 7 days after transplantation, cut out integrated collagen gels and surrounding membrane, and imaged with fluorescence microscopy. […]

T1 sequence (P02454 152-1207 limits assumed): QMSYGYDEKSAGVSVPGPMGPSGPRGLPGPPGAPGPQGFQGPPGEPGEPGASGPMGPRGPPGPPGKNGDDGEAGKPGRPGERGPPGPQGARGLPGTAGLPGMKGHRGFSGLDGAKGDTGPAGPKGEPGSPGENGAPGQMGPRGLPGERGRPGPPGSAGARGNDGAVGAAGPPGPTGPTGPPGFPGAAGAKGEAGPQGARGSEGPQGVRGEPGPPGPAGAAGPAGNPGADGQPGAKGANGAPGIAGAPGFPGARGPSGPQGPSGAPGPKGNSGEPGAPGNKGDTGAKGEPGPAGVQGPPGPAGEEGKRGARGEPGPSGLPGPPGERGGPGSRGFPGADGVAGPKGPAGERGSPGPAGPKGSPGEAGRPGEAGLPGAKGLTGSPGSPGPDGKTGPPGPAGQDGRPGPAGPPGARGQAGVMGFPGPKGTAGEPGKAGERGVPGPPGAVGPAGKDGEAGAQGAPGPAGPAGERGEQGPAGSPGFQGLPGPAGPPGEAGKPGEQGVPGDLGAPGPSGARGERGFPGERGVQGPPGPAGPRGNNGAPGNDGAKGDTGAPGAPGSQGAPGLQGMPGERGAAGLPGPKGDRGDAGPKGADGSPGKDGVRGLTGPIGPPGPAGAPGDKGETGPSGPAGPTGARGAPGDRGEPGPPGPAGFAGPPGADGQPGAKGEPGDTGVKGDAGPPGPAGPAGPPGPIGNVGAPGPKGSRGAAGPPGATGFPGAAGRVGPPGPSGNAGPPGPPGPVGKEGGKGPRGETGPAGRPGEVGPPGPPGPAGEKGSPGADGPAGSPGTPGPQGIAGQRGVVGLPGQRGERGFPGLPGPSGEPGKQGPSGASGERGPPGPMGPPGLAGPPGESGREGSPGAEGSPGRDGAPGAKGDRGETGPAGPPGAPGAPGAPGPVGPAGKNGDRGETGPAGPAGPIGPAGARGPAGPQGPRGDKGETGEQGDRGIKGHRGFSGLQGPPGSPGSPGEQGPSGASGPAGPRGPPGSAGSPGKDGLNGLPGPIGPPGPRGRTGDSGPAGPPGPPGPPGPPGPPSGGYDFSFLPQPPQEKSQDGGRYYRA
T1 sequence (P02466 86-1125 limits assumed): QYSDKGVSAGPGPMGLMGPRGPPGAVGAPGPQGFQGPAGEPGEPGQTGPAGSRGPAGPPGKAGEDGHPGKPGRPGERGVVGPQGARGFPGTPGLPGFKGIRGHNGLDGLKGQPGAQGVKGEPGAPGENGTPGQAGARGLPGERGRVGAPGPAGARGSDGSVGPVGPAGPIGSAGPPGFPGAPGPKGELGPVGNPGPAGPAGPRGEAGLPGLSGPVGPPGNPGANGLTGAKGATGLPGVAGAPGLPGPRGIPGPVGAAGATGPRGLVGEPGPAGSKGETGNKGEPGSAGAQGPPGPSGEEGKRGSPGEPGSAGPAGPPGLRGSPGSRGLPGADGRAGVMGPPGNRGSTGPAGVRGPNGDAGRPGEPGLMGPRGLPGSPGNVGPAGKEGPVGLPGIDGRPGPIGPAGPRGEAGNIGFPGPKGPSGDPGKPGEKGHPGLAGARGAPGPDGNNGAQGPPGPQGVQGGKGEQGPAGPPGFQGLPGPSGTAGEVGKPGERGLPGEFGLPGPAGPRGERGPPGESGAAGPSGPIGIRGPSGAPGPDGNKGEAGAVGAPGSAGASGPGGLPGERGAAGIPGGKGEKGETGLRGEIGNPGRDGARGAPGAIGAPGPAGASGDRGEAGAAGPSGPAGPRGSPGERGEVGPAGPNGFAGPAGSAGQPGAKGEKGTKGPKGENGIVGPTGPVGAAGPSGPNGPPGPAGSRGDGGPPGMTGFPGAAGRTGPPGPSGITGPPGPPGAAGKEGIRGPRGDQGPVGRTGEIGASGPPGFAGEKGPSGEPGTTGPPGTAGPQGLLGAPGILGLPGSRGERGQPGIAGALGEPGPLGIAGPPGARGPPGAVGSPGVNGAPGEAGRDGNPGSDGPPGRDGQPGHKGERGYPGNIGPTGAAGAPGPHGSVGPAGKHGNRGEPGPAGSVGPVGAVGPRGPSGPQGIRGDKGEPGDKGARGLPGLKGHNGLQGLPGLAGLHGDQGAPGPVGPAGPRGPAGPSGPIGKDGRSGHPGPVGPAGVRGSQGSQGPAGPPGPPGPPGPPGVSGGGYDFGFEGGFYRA

## DS-(peg2V)2: dermatan sulfate with 2 peg2V peptides per DS (KLTWQELYQLKYKGI[AEEA][AEEA]GSG; also: conjugated to dermatan sulfate, 2 peg2V per DS, attachment not given here)
[1]; comparison between molecules
  collagen I affinity (relative): higher affinity for collagen I than DS-SILY4
  collagen I binding capacity (relative): highest collagen I binding capacity of all the molecules studied
[2]
  matrigel binding affinity (relative): similar

## GRGD [RGD peptide, reference compound]
[3]
  monocyte binding to treated surface: generally supported monocyte and platelet binding
[4]
  platelet binding to treated surface: generally supported monocyte and platelet binding

## (peg2V)2-DS-SILY4: pro-angiogenic decorin mimic, 2 peg2V and 4 SILY per DS (peptide 1 KLTWQELYQLKYKGI[AEEA][AEEA]GSG; peptide 2 RRANAALKAGELYKSILYGSG; also: conjugated to dermatan sulfate: 2 peg2V and 4 SILY per DS, attachment not given here)
[1]
  collagen I binding after incubation (deterioration of binding activity over time): higher concentrations are needed to achieve the same binding
[1]; comparison between molecules
  collagen I affinity (relative): highest collagen I and matrigel affinities
[2]
  matrigel binding after incubation (deterioration of binding activity over time): higher concentrations are needed to achieve the same binding
  matrigel binding affinity (relative): highest collagen I and matrigel affinities

## DS-SILY4: decorin mimic composed of a dermatan sulfate backbone and 4 SILY substitutions per DS (RRANAALKAGELYKSILYGSG; also: conjugated to dermatan sulfate, 4 SILY per DS, attachment not given here)
[5]
  decrease in HMVEC attachment compared to a BSA blocked collagen surface: 7%
[1]
  collagen I binding after incubation (deterioration of binding activity over time): this shift was also observed
[1]; biotinylated molecule, absorbance
  binding capacity to collagen I: 1.6 AU
[6]
  binding capacity to fibrinogen: 0.30 AU
[7]; 1 μM surface treatment
  endothelial proliferation vs untreated collagen: only statistically significant over no treatment when compared in media lacking VEGF
[7]; 10 μM surface treatment
  endothelial proliferation vs untreated collagen: significantly improved proliferation in media with and without VEGF
[8]
  gel vascularity / vascularized gel area: very slight increase in gel vascularity that was not statistically significant over the blank controls
[2]
  matrigel binding after incubation (deterioration of binding activity over time): increased matrigel binding capacity after the 2 week incubation
[2]; biotinylated molecule, matrigel coating, absorbance
  binding capacity to collagen IV/laminin: 1.1 AU
